Reference: PMC6520328

Molecular target: neonatal Fc receptor (FcRn) (UniProt P55899)
Assay: FcRn binding assay

Chain of UniProt P55899 (P55899 whole entry, looked up, tested part not stated): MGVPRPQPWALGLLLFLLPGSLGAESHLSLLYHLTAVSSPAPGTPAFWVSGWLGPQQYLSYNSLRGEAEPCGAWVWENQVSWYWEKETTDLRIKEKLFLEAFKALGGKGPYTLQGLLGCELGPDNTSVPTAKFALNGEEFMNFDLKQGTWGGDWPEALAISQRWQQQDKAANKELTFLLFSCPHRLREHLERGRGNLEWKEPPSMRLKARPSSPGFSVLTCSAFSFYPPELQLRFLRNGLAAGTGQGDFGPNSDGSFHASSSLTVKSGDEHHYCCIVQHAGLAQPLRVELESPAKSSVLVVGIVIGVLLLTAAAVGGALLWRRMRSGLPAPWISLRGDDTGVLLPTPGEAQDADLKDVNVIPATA

Substance: Fc deglycosylated tralokinumab (antibody)
- FcRn binding relative to control tralokinumab: 87%
